Columns and labels:
Conditions in all cases: reference: unphosphorylated MAP2c; sites Y67
[1] = target: Grb2 (growth factor receptor-bound protein 2) SH2 domain, 57-158 (UniProt P62993); assay: NMR HNCO peak broadening of labeled MAP2c
[2] = target: Grb2 (growth factor receptor-bound protein 2) SH2 domain, 57-158 (UniProt P62993); assay: NMR HNCO chemical shift perturbation of MAP2c
[3] = target: Grb2 (growth factor receptor-bound protein 2) SH2 domain, 57-158 (UniProt P62993); assay: 1H,15N HSQC titration of 15N-Grb2-SH2 with MAP2c

## MAP2c (microtubule-associated protein 2c) (from UniProt P15146) Fyn-phosphorylated MAP2c
[1]
  binding against the reference: stronger
[2]
  binding against the reference: gained
[3]
  KD: gained; reference No significant CCSP

Source: PMC11367651
